Source: patent publication US20080249606A1 (published 2008)

Columns and labels:
[1] = target: T1, Blocking Reagent (catalogue number 11112589001, Roche Diagnostics) immobilized in ELISA wells; assay: ELISA, Blocking Reagent on Costar 2595 plate
T1 construct: One molecule for all four plate types; The plate is named under assay in each row

[2] = target: T1, Blocking Reagent (catalogue number …); assay: ELISA, Blocking Reagent on Nunc Immobilizer Amino plate
[3] = target: T1, Blocking Reagent (catalogue number …); assay: ELISA, Blocking Reagent on Greiner Microlon high-binding plate
[4] = target: T1, Blocking Reagent (catalogue number …); assay: ELISA, Blocking Reagent on Costar 9102 plate (second experiment, FIG. 2M)
[5] = target: T1, Blocking Reagent (catalogue number …); assay: ELISA, Blocking Reagent on Costar 9102 plate, tPA concentration series in PBS pH 7.3 with 10 mM εACA
[6] = target: T2, BSA incubated overnight with dextran sulphate 500,000 Da (DXS500k) (bovine, UniProt P02769 25-607); assay: ELISA, protein/DXS500k mixture immobilized on Greiner Microlon plate, tPA in 10 mM εACA, detection with antibody 374b
T2 construct: Same protein as m3, misfolded by contact with DXS500k (a non-protein polymer present in the mixture); also called BSA with DXS500k; DXS500k-protein mixture
T2 sequence (P02769 25-607 limits assumed): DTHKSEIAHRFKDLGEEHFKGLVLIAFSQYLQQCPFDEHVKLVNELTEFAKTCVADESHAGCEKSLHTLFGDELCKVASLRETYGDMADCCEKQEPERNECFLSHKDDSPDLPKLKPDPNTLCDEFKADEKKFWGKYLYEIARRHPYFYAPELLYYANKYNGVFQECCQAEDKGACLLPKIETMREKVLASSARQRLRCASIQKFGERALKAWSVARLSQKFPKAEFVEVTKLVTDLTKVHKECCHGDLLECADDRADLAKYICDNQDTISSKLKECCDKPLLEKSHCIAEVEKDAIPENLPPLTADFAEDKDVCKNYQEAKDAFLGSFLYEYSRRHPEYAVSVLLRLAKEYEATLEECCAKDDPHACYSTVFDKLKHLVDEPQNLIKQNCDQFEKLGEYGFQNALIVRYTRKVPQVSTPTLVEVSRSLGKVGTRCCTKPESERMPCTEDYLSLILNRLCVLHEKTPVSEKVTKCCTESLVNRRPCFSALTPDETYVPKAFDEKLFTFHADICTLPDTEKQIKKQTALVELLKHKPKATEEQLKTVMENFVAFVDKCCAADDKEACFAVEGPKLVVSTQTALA

B1: tissue-type plasminogen activator (tPA, Actilyse, Boehringer-Ingelheim) (enzyme, UniProt P00750 36-562, looked up)
chain: SYQVICRDEKTQMIYQQHQSWLRPVLRSNRVEYCWCNSGRAQCHSVPVKSCSEPRCFNGGTCQQALYFSDFVCQCPEGFAGKCCEIDTRATCYEDQGISYRGTWSTAESGAECTNWNSSALAQKPYSGRRPDAIRLGLGNHNYCRNPDRDSKPWCYVFKAGKYSSEFCSTPACSEGNSDCYFGNGSAYRGTHSLTESGASCLPWNSMILIGKVYTAQNPSAQALGLGKHNYCRNPDGDAKPWCHVLKNRRLTWEYCDVPSCSTCGLRQYSQPQFRIKGGLFADIASHPWQAAIFAKHRRSPGERFLCGGILISSCWILSAAHCFQERFPPHHLTVILGRTYRVVPGEEEQKFEVEKYIVHKEFDDDTYDNDIALLQLKSDSSRCAQESSVVRTVCLPPADLQLPDWTECELSGYGKHEALSPFYSERLKEAHVRLYPSSRCTSQHLLNRTVTDNMLCAGDTRSGGPQANLHDACQGDSGGPLVCLNDGRMTLVGIISWGLGCGQKDVPGVYTKVTNYLDWIRDNMRP
notes: Bought drug product
Kd [1]: 30 nM
Kd [2]: 39 nM
Kd [3]: 23000 nM
Kd [4]: ~0.5 nM
Kd [5]: 0.6 nM
factor of increase of tPA binding against the protein incubated with buffer only [6]: 1.3 fold
